For five molecules, binding result and Kd results are on record in article PMC12205872, “ESSENTIAL MEIOTIC ENDONUCLEASE 1 is required for chloroplast development and DNA repair in rice”.

Data set [1] has as its target T1, OsEME1 (MBP removed by TEVp) (Oryza sativa L. japonica cv. KY131, UniProt Q0J9J6 1-650).
T1 sequence: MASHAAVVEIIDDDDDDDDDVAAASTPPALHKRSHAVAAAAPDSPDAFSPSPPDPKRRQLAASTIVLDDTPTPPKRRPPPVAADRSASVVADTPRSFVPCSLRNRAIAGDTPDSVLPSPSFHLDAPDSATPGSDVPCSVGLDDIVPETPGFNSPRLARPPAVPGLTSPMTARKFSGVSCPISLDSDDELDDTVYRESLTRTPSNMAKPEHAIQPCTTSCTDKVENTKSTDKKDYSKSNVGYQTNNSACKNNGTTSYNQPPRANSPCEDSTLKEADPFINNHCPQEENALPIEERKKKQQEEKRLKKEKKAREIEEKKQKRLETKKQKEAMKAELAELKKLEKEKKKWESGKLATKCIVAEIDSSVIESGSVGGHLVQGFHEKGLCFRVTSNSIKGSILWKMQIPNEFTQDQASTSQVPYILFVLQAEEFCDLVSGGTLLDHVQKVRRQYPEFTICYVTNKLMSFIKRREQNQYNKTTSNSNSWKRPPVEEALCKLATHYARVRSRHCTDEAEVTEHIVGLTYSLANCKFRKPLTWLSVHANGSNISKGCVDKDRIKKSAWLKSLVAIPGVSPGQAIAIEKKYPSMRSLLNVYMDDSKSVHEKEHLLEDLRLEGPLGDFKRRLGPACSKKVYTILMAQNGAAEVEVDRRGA
Put plainly: EMSA; 20 uM protein, 1 mM Mg2+, 5 mM ATP; EMSA/cleavage: 25 mM Tris-HCl pH 7.5, 1 mM MgCl2, 100 mg/mL BSA (so in the source), 1 mM DTT, 5 mM ATP, 2.5 uM Cy5 substrate, 20 uM protein, 30 C, 15% TBE-PAGE after. Particulars: protein: recombinant, tags: MBP cleaved by TEVp, splayed Y: X1 1-25 paired with X2 26-50, 25 nt unpaired arms. For orientation: Mobility shift assays separate free from complexed probe on a gel.

Data set [2] deals with T2, OsEME1-MBP (MBP fusion, used in MST) (Oryza sativa L. japonica cv. KY131, UniProt Q0J9J6 1-650).
T2 sequence: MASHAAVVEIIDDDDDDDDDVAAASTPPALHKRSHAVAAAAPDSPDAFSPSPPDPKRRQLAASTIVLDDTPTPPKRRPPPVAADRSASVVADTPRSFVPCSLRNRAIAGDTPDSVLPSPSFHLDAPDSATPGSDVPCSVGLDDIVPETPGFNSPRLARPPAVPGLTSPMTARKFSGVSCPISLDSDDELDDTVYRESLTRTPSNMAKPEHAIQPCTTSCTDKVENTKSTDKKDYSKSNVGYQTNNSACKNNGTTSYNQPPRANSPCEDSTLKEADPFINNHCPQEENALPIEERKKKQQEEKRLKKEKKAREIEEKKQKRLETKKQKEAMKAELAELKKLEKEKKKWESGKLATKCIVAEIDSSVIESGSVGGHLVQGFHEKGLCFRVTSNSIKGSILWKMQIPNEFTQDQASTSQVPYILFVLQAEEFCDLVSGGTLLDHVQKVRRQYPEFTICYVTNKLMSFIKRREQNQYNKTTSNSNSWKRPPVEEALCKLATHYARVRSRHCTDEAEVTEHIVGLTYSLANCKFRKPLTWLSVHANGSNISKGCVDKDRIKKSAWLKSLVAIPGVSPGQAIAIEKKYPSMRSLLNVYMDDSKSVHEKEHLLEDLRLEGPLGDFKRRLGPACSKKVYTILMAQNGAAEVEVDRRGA
Put plainly: MST; 100 nM DNA, 30 C; substrate called Y-Flag in Methods; EMSA/cleavage: 25 mM Tris-HCl pH 7.5, 1 mM MgCl2, 100 mg/mL BSA (so in the source), 1 mM DTT, 5 mM ATP, 2.5 uM Cy5 substrate, 20 uM protein, 30 C, 15% TBE-PAGE after. The conditions noted are these: protein: recombinant; tags: MBP; splayed Y: X1 1-25 paired with X4 26-50; 25 nt unpaired 3' arm of X1 and 5' arm of X4.

In data set [3] the target is T3, OsMUS81 (MBP removed by TEVp) (Oryza sativa L. japonica cv. KY131, UniProt Q8GT06 1-660).
T3 sequence: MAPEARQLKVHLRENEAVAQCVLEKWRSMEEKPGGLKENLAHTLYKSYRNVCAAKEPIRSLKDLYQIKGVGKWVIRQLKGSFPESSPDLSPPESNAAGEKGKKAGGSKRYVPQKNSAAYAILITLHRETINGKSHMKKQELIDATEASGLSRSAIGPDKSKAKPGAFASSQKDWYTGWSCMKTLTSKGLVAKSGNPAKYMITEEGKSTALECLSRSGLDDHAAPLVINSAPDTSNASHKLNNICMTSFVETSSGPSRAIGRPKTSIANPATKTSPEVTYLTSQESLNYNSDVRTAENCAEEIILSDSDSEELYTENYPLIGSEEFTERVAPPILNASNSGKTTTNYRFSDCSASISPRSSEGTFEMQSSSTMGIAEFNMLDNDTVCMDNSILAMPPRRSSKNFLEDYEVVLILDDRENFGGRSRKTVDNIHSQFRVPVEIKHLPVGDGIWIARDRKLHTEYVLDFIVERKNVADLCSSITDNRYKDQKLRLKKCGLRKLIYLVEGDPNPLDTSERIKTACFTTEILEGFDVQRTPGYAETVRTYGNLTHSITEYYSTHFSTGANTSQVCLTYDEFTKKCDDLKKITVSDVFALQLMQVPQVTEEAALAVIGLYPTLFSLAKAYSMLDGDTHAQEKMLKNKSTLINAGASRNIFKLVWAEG
Put plainly: EMSA; 1 mM Mg2+, 5 mM ATP; not responsible for cleavage; EMSA/cleavage: 25 mM Tris-HCl pH 7.5, 1 mM MgCl2, 100 mg/mL BSA (so in the source), 1 mM DTT, 5 mM ATP, 2.5 uM Cy5 substrate, 20 uM protein, 30 C, 15% TBE-PAGE after. Particulars: protein: recombinant, tags: MBP cleaved by TEVp, label: Cy5 on X1 (3' end).

B1: OsGLK1-Y12 (mixed)
DNA 1: CGTCGATGACATAGACTTCGGGGACTTCTTCCTGAGGCTGGAGGACGGTG
DNA 2: GAAGTCGGTGAAGATCTCGGCCGGGGTCCCCGAAGTCTATGTCATCGACG
Regarding B1, the binding result in data set [1] (label: 5' Cy5 on GLK1 X1) is “binds”.

B2: OsGLK2-Y12 (mixed)
DNA 1: GAAGAAGAAGGACGACGAGGAAAGGTCGTCGTCGTTGCCGGAGGAGAAAG
DNA 2: CTCCGTCGTCACCGCGCTCAGGACCCCTTTCCTCGTCGTCCTTCTTCTTC
On to B2, for which the binding result in data set [1] (label: 5' Cy5 on GLK2 X1) is “binds”.

B3: Y12 (mixed)
DNA 1: GACGCTGCCGAATTCTGGCTTGCTAGGACATCTTTGCCCACGTTGACCCG
DNA 2: GCGATAGTCTCTAGACAGCATGTCCTAGCAAGCCAGAATTCGGCAGCGTC
In the case of B3, the Kd in data set [2] came to 16.3 ± 2.16 µM.

B4: pre-X12 (mixed)
DNA 1: GACGCTGCCGAATTCTGGCTTGCTAGGACATCTTTGCCCACGTTGACCCG
DNA 2: CGGGTCAACGTGGGCAAAGATGTCCTAGCAATGTAATCGTCTATGACGTC
DNA 3: GCGATAGTCTCTAGACAGCATGTCCTAGCAAGCCAGAATTCGGCAGCGTC
On to B4, for which, in data set [3] (three-strand junction: X1 1-25 with X4 26-50, X1 26-50 with X2 1-25, X2 3' and X4 5' arms single-stranded), the binding result was “binds”.

B5: X12 (structured_DNA)
DNA 1: GACGCTGCCGAATTCTGGCTTGCTAGGACATCTTTGCCCACGTTGACCCG
DNA 2: CGGGTCAACGTGGGCAAAGATGTCCTAGCAATGTAATCGTCTATGACGTC
DNA 3: GACGTCATAGACGATTACATTGCTAGGACATGCTGTCTAGAGACTATCGC
DNA 4: GCGATAGTCTCTAGACAGCATGTCCTAGCAAGCCAGAATTCGGCAGCGTC
In the case of B5, the binding result in data set [3] (four-way Holliday junction with 12-bp mobile homologous core) is given as “binds”.

What is called Kd is the free concentration of one partner at which half of the binding sites on the other are occupied at equilibrium, for simple one-to-one binding.
